The results in this text go back to PMC10397247.

The target in one experiment is T1, 4H1449-bA.
T1 chain: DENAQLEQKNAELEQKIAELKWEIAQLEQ
The experiment in a line: two-hybrid library CCNG1.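 Also: natural log of median RNA to DNA barcode read ratio; higher means stronger binding.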

The next experiment addresses T2, 4H3817-bA.
T2 chain: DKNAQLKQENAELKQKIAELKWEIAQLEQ
Description: two-hybrid library CCNG1.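 Also: natural log of median RNA to DNA barcode read ratio; higher means stronger binding.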

A further experiment concerns the target T3, 4H619-bA.
T3 chain: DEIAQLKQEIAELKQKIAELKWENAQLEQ
The experiment in a line: two-hybrid library CCNG1.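 Also: natural log of median RNA to DNA barcode read ratio; higher means stronger binding.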

For the next experiment, the target named is T4, 4H3172-bA.
T4 chain: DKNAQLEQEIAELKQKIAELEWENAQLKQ
The experiment in a line: two-hybrid library CCNG1.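 Also: natural log of median RNA to DNA barcode read ratio; higher means stronger binding.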

For another experiment, the target named is T5, 4H1338-bA.
T5 chain: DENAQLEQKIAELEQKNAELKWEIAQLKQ
The experiment in a line: two-hybrid library CCNG1.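 Also: natural log of median RNA to DNA barcode read ratio; higher means stronger binding.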

A further experiment deals with T6, 4H906-bA.
T6 chain: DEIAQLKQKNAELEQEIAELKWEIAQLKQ
Description: two-hybrid library CCNG1.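 Also: natural log of median RNA to DNA barcode read ratio; higher means stronger binding.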

A further experiment addresses T7, 4H1348-bA.
T7 chain: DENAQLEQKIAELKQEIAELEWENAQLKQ
The experiment in a line: two-hybrid library CCNG1.

The target in another experiment is T8, 4H850-bA.
T8 chain: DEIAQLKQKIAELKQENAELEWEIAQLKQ
Description: two-hybrid library CCNG1.

For another experiment, the target named is T9, 4H584-bA.
T9 chain: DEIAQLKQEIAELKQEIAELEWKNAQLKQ
The experiment in a line: two-hybrid library CCNG1.

A further experiment addresses T10, 4H3974-bA.
T10 chain: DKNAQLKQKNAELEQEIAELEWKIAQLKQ
Description: two-hybrid library CCNG1.

In the next experiment the target is T11, 4H570-bA.
T11 chain: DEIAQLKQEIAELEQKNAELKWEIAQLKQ
The experiment in a line: two-hybrid library CCNG1.

For the next experiment, the target named is T12, 4H1804-bA.
T12 chain: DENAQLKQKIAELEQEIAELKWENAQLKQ
The experiment in a line: two-hybrid library CCNG1.

The next experiment has as its target T13, 4H1629-bA.
T13 chain: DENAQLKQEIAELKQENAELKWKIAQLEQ
The experiment in a line: two-hybrid library CCNG1.

The next experiment concerns the target T14, 4H3414-bA.
T14 chain: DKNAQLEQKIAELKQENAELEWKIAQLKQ
The experiment in a line: two-hybrid library CCNG1.

A further experiment concerns the target T15, 4H1899-bA.
T15 chain: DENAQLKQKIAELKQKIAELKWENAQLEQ
The experiment in a line: two-hybrid library CCNG1.

In the next experiment the target is T16, 4H3628-bA.
T16 chain: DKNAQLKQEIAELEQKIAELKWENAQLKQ
Description: two-hybrid library CCNG1.

The target in the next experiment is T17, 4H1544-bA.
T17 chain: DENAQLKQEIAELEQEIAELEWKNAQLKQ
The experiment in a line: two-hybrid library CCNG1.

The target in another experiment is T18, 4H3613-bA.
T18 chain: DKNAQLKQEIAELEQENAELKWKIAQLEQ
Description: two-hybrid library CCNG1.

In another experiment the target is T19, 4H1222-bA.
T19 chain: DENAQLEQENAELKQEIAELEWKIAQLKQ
Description: two-hybrid library CCNG1.

Another experiment concerns the target T20, 4H3631-bA.
T20 chain: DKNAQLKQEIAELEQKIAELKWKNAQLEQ
The experiment in a line: two-hybrid library CCNG1.

The target of another experiment is T21, 4H1985-bA.
T21 chain: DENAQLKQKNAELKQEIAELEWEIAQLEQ
The experiment in a line: two-hybrid library CCNG1.

The next experiment deals with T22, 4H3858-bA.
T22 chain: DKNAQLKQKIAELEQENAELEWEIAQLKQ
The experiment in a line: two-hybrid library CCNG1.

Another experiment addresses T23, 4H1393-bA.
T23 chain: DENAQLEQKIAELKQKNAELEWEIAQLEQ
The experiment in a line: two-hybrid library CCNG1.

Another experiment addresses T24, 4H3129-bA.
T24 chain: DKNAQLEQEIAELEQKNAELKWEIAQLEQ
The experiment in a line: two-hybrid library CCNG1.

The target in a further experiment is T25, 4H3638-bA.
T25 chain: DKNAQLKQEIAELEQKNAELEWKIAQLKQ
Description: two-hybrid library CCNG1.

The target in the next experiment is T26, 4H1359-bA.
T26 chain: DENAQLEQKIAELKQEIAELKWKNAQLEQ
The experiment in a line: two-hybrid library CCNG1.

For the next experiment, the target named is T27, 4H1373-bA.
T27 chain: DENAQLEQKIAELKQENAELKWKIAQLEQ
Description: two-hybrid library CCNG1.

The next experiment has as its target T28, 4H1710-bA.
T28 chain: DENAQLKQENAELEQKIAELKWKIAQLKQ
Description: two-hybrid library CCNG1.

In another experiment the target is T29, 4H816-AA.
T29 chain: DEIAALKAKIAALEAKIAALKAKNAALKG
Description: two-hybrid library CCmax. Conditions: mean of both orientations.

The next experiment has as its target T30, 4H1068-AA.
T30 chain: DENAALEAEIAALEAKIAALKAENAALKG
The experiment in a line: two-hybrid library CCmax.

In a further experiment the target is T31, 4H1985-AA.
T31 chain: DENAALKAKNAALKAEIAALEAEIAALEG
The experiment in a line: two-hybrid library CCmax. Conditions: mean of both orientations.

The target in a further experiment is T32, 4H3940-AA.
T32 chain: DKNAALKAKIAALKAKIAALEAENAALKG
Description: two-hybrid library CCmax. Conditions: mean of both orientations.

In the next experiment the target is T33, 4H2646-AA.
T33 chain: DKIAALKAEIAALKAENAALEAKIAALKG
Description: two-hybrid library CCmax. Conditions: mean of both orientations.

The next experiment has as its target T34, 4H3409-AA.
T34 chain: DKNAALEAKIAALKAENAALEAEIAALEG
Description: two-hybrid library CCmax. Conditions: mean of both orientations.

A further experiment addresses T35, 4H2187-AA.
T35 chain: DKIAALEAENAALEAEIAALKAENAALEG
The experiment in a line: two-hybrid library CCmax. Conditions: mean of both orientations.

The next experiment concerns the target T36, 4H2873-AA.
T36 chain: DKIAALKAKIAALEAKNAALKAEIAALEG
Description: two-hybrid library CCmax. Conditions: mean of both orientations.

Another experiment has as its target T37, 4H2512-AA.
T37 chain: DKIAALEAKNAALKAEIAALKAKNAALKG
Description: two-hybrid library CCmax. Conditions: mean of both orientations.

The target of a further experiment is T38, 4H2985-AA.
T38 chain: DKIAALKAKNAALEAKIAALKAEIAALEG
The experiment in a line: two-hybrid library CCmax. Conditions: mean of both orientations.

A further experiment concerns the target T39, 4H510-AA.
T39 chain: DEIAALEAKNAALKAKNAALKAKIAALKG
Description: two-hybrid library CCmax. Conditions: mean of both orientations.

For another experiment, the target named is T40, 4H3625-AA.
T40 chain: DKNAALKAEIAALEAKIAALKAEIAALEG
Description: two-hybrid library CCmax. Conditions: mean of both orientations.

The target of a further experiment is T41, 4H278-AA.
T41 chain: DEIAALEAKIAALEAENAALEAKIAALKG
The experiment in a line: two-hybrid library CCmax. Conditions: mean of both orientations.

For a further experiment, the target named is T42, 4H2687-AA.
T42 chain: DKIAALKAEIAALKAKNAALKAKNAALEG
Description: two-hybrid library CCmax. Conditions: mean of both orientations.

For the next experiment, the target named is T43, 4H87-AA.
T43 chain: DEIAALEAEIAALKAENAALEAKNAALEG
Description: two-hybrid library CCmax. Conditions: mean of both orientations.

The target in the next experiment is T44, 4H2705-AA.
T44 chain: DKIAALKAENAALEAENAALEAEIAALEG
Description: two-hybrid library CCmax. Conditions: mean of both orientations.

For the next experiment, the target named is T45, 4H233-AA.
T45 chain: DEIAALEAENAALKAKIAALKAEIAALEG
Description: two-hybrid library CCmax. Conditions: mean of both orientations.

For the next experiment, the target named is T46, 4H390-AA.
T46 chain: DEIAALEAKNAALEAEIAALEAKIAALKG
The experiment in a line: two-hybrid library CCmax. Conditions: mean of both orientations.

A further experiment has as its target T47, 4H2758-AA.
T47 chain: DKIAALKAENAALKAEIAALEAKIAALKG
Description: two-hybrid library CCmax. Conditions: mean of both orientations.

The target of another experiment is T48, 4H1710-AA.
T48 chain: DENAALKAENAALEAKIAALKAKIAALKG
Description: two-hybrid library CCmax. Conditions: mean of both orientations.

The target of the next experiment is T49, 4H3134-AA.
T49 chain: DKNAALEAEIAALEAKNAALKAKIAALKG
The experiment in a line: two-hybrid library CCmax. Conditions: mean of both orientations.

The target of the next experiment is T50, 4H121-AA.
T50 chain: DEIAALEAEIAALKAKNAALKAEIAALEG
Description: two-hybrid library CCmax. Conditions: mean of both orientations.

Another experiment concerns the target T51, 4H775-AA.
T51 chain: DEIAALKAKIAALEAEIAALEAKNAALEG
The experiment in a line: two-hybrid library CCmax. Conditions: mean of both orientations.

A further experiment addresses T52, 4H1350-AA.
T52 chain: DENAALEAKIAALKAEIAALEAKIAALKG
Description: two-hybrid library CCmax. Conditions: mean of both orientations.

The next experiment deals with T53, Core_NNIN-es_KEEE.
T53 chain: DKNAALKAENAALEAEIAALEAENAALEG
Description: two-hybrid library CCmax.

The target of the next experiment is T54, Core_NNNN-es_KKKK.
T54 chain: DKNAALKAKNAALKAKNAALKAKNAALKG
Description: two-hybrid library CCmax. Conditions: mean of both orientations.

As for DENAQLEQENAELKQEIAELEWKIAQLKQ [4H1222-bA], the interaction score is 0.729 in the experiment with 4H1449-bA; 1.18 in the experiment with 4H3817-bA; -1.01 in the experiment with 4H619-bA; 0.388 with 4H3172-bA; 0.202 in the experiment with 4H1338-bA; -0.403 in the experiment with 4H906-bA. The interaction score in the experiment with 4H1348-bA was 0.605; with 4H850-bA it was -0.2; with 4H584-bA, -1.36; with 4H3974-bA, 0.693; with 4H570-bA, 0.341; with 4H1804-bA it was -0.0181. The interaction score is -0.826 in the experiment with 4H1629-bA; -0.0927 with 4H3414-bA; 1.1 with 4H1899-bA; -0.374 in the experiment with 4H3628-bA; 0.517 with 4H1544-bA; -0.452 with 4H3613-bA. For the same molecule, the interaction score with 4H1222-bA is 0.532; in the experiment with 4H3631-bA it was 0.222; in the experiment with 4H1985-bA, 1.8; with 4H3858-bA, -0.31; with 4H1393-bA, 0.0501; in the experiment with 4H3129-bA, -1.85. Also, the interaction score was -0.958 in the experiment with 4H3638-bA, -0.0139 with 4H1359-bA, -0.665 in the experiment with 4H1373-bA and 2.36 in the experiment with 4H1710-bA.

DENAALEAEIAALEAKIAALKAENAALKG [4H1068-AA]: the interaction score is 0.372 with 4H816-AA; 0.409 with 4H1068-AA; 0.534 with 4H1985-AA; 2.05 in the experiment with 4H3940-AA; -0.0619 in the experiment with 4H2646-AA; -1.36 with 4H3409-AA. Also, the interaction score is -1.71 with 4H2187-AA; -0.197 with 4H2873-AA; -1.06 in the experiment with 4H2512-AA; -0.0876 with 4H2985-AA; -1.05 with 4H510-AA; -0.226 with 4H3625-AA. Besides, the interaction score in the experiment with 4H278-AA is -0.737; in the experiment with 4H2687-AA, 0.562; with 4H87-AA it was -0.863; in the experiment with 4H2705-AA, -1.15; with 4H233-AA it was 0.754; with 4H390-AA, -0.217. The interaction score with 4H2758-AA is -1.99; with 4H1710-AA, -1.11; with 4H3134-AA, -0.167; with 4H121-AA, -0.866; with 4H775-AA, -0.238; with 4H1350-AA, 0.695.

With DENAALEAKNAALKAKIAALKAKNAALKG [Core_NNIN-es_EKKK], the interaction score in the experiment with Core_NNIN-es_KEEE turned out to be 1.83.

In the experiment with Core_NNNN-es_KKKK, DENAALEAENAALEAENAALEAENAALEG [Core_NNNN-es_EEEE] registered an interaction score of 1.53.
